# Test results taken from patent publication US20070172423A1, “Composition and method for modulating vasculogenesis for angiogenesis” (priority 1998, published 2007).
# B1: PDGF-CC: recombinant human PDGF-CC core domain homodimer, residues 230-345 of full-length PDGF-C (SEQ ID NO:40), produced in baculovirus infected insect cells (protein)
# chain: GRKSRVVDLNLLTEEVRLYSCTPRNFSVSIREELKRTDTIFWPGCLLVKRCGGNCACCLHNCNECQCVPSKVTKKYHEVLQLRPKTGVRGLHKSLTDVALEHHEECDCVCRGSTGG
# modifications: homodimer; PDGF-C core domain
# Molecular target: PDGF alpha receptors (Homo sapiens, UniProt P16234)
# Assay: Competition with 125I-PDGF-BB for binding to PAE-1 cells expressing PDGF alpha-receptor
# Parameters: expressed in transfected cells
# Settings: 5 ng/ml 125I-PDGF-BB tracer, on ice 90 minutes
# Protocol: Next, full length and truncated PDGF-C were tested for their capacity to bind to human PDGF receptors alpha and beta by analyzing their abilities to compete with PDGF-BB for binding to PDGF receptors. The binding experiments were performed on porcine aortic endothelial-1 (PAE-1) cells stably expressing the human PDGF receptors alpha and beta (Eriksson et al., EMBO J, 1992, 11, 543-550). Binding experiments were performed essentially as in Heldin et al. (EMBO J, 1988, 7:1387-1393). Different concentrations of human full-length and truncated PDGF-C, or human PDGF-BB were mixed with 5 ng/ml of ^125I-PDGF-BB in binding buffer (PBS containing 1 mg/ml of bovine serum albumin). Aliquots were incubated with the receptor expressing PAE-1 cells plated in 24-well culture dishes on ice for 90 minutes. After three washes with binding buffer, cell-bound 125]-PDGF-BB was extracted by lysis of cells in 20 mM Tris-HCl, pH 7.5, 10% glycerol, 1% Triton X-100. The amount of cell bound radioactivity was determined in a gamma-counter. A standard curve for the binding of ^125I-labeled PDGF BB homodimers to PAE-1 cells expressing PDGF alpha-receptor is shown in FIG. 18.
# Sequence of PDGF alpha receptors (P16234 24-1089): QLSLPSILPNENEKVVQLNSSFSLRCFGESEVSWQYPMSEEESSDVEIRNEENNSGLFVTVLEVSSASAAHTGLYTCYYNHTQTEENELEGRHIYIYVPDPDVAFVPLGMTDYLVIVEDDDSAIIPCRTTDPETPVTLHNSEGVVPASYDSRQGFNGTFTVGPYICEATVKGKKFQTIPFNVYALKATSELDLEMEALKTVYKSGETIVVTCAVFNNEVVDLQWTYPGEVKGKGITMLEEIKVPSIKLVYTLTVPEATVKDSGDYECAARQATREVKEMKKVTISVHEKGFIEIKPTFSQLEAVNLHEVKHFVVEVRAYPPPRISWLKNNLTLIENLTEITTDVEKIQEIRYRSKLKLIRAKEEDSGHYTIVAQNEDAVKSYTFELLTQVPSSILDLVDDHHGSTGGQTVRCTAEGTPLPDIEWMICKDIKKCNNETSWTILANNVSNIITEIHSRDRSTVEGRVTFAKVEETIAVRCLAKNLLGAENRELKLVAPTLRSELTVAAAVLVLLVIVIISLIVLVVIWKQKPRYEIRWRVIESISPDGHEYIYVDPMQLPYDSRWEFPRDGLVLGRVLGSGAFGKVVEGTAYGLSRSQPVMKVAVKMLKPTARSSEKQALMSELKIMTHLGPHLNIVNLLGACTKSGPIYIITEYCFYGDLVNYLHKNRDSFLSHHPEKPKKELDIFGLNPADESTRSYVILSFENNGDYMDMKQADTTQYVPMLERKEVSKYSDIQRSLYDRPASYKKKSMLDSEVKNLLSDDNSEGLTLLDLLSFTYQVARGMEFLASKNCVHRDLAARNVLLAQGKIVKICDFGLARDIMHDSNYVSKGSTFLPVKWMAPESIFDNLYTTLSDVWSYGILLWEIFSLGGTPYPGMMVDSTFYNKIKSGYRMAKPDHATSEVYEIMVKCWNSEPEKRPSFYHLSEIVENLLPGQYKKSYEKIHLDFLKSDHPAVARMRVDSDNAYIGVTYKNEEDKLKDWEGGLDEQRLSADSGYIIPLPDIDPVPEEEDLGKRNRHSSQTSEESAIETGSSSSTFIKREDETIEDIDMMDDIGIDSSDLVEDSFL
molecule,measurement,value
B1,competition for binding to the PDGF alpha-receptor,efficiently competed
